The numbers were not newly measured in patent publication US20200069786A1, “COMPOSITION AND PROCESS FOR PREPARING VACCINE” (TREOS BIO ZRT., priority 2018, published 2020), which cites them from elsewhere.

Like-named read-outs stand apart in the source and are kept apart here.

The test system of the data set is TSA.
[1] abbreviates: TSA expression rate in LEUKEMIAS
Setting [2] is: TSA expression rate in MELANOMA
The mark [3] stands for this setting: TSA expression rate in LUNG cancer.

B1: CTAGE1 (protein, UniProt Q96RT6 1-745, looked up)
cTAGE family member 2: MRPDSHPYGFPWELVIRAAVAGFFAVLFLWRSFRSVTSRLYVRREKKFAVALSGLIEEKCKLLEKFSLVQKEYEGYEVESSLKNASFEKEATEAQSLEATCEKLNRFNSELVHEILCLEKELKEEKSKHSEQNELMADISKRIQSLEDESKSLKSQVAEAKMTFKRFQANEERLEIEIQDAWKENSELQESQKQLLQEAEVWKEQVSELIKQKRTFEDSKVHAEQVLNDKENHIKTLTERLLKMKDGVAMLEEDVTDDDNLELEMNSESEDGAYLDNPPKGALKKLIHAAKLNASLKTLEGERNQIYIQLSEVDKTKEELTEHIKNLQTEQASLQSENTHFESENQKLQQKLKVMTELYQENEMKLYRKLIVEEKCRLEKEEKLSKVDEMISHATEELETYRKRAKDLKEFEKTIHFYQKKIILHEKKAHDNWSAAWTAERNLNDLRKENAHNRQKLTEIEFKIKLLEKDPYGLDVPNTAFGRQHSPYGPSPLGWPSSETRASLYPPTLLEGPLRLSPLLPRGGGRGSRGPGNPPDHQITKERGESSCDRLTDPHRAPSDAGPLAPPWEQDYRMMFPPPGQSYPDSALPPQRQDRFYSNCARLSGPAELRSFNMPSLDKMDGSMPSEMESSRNDTKDNLGNLKVPDSSLPAENEATGPGFVPPPLAPIRGLLFPVDTRGPFIRRGPPFPPPPPGTVFGASPDYFSPRDVPGPPRAPFAMRNVYLPRGFLPYRPPRPAFFPPAPTF
As to B1, the “Expression Rate (ER) %” value (TSA expression rate in BLADDER cancer) is listed as 53%, the “Expression Rate (ER) %” value (TSA expression rate in CRC) is 19% and the “Expression Rate (ER) %” value under setting [1] is recorded as 72%.

B2: PAGE5 (protein, UniProt Q96GU1 1-130, looked up)
P antigen family member 5: MQAPWAGNRGWAGTREEVRDMSEHVTRSQSSERGNDQESSQPVGPVIVQQPTEEKRQEEEPPTDNQGIAPSGEIKNEGAPAVQGTDVEAFQQELALLKIEDAPGDGPDVREGTLPTFDPTKVLEAGEGQL
Take B2: the “Expression Rate (ER) %” value (TSA expression rate in CRC) is reported as 11%, the “Expression Rate (ER) %” value (TSA expression rate in Kidney) was 44% and the “Expression Rate (ER) %” value under setting [2] was 22%.

B3: CTNNA2 (protein, UniProt P26232 1-953, looked up)
Catenin alpha-2: MTSATSPIILKWDPKSLEIRTLTVERLLEPLVTQVTTLVNTSNKGPSGKKKGRSKKAHVLAASVEQATQNFLEKGEQIAKESQDLKEELVAAVEDVRKQGETMRIASSEFADDPCSSVKRGTMVRAARALLSAVTRLLILADMADVMRLLSHLKIVEEALEAVKNATNEQDLANRFKEFGKEMVKLNYVAARRQQELKDPHCRDEMAAARGALKKNATMLYTASQAFLRHPDVAATRANRDYVFKQVQEAIAGISNAAQATSPTDEAKGHTGIGELAAALNEFDNKIILDPMTFSEARFRPSLEERLESIISGAALMADSSCTRDDRRERIVAECNAVRQALQDLLSEYMNNTGRKEKGDPLNIAIDKMTKKTRDLRRQLRKAVMDHISDSFLETNVPLLVLIEAAKSGNEKEVKEYAQVFREHANKLVEVANLACSISNNEEGVKLVRMAATQIDSLCPQVINAALTLAARPQSKVAQDNMDVFKDQWEKQVRVLTEAVDDITSVDDFLSVSENHILEDVNKCVIALQEGDVDTLDRTAGAIRGRAARVIHIINAEMENYEAGVYTEKVLEATKLLSETVMPRFAEQVEVAIEALSANVPQPFEENEFIDASRLVYDGVRDIRKAVLMIRTPEELEDDSDFEQEDYDVRSRTSVQTEDDQLIAGQSARAIMAQLPQEEKAKIAEQVEIFHQEKSKLDAEVAKWDDSGNDIIVLAKQMCMIMMEMTDFTRGKGPLKNTSDVINAAKKIAEAGSRMDKLARAVADQCPDSACKQDLLAYLQRIALYCHQLNICSKVKAEVQNLGGELIVSGTGVQSTFTTFYEVDCDVIDGGRASQLSTHLPTCAEGAPIGSGSSDSSMLDSATSLIQAAKNLMNAVVLTVKASYVASTKYQKVYGTAAVNSPVVSWKMKAPEKKPLVKREKPEEFQTRVRRGSQKKHISPVQALSEFKAMDSF
Turning to B3, the “Expression Rate (ER) %” value under setting [1] is given as 45%.

B4: TEX14 (protein, UniProt Q8IWB6 1-1497, looked up)
Inactive …: MSRAVRLPVPCPVQLGTLRNDSLEAQLHEYVKQGNYVKVKKILKKGIYVDAVNSLGQTALFVAALLGLRKFVDVLVDYGSDPNHRCFDGSTPVHAAAFSGNQWILSKLLDAGGDLRLHDERGQNPKTWALTAGKERSTQIVEFMQRCASHMQAIIQGFSYDLLKKIDSPQRLVYSPSWCGGLVQGNPNGSPNRLLKAGVISAQNIYSFGFGKAMPWFQFYLTGATQMAYLGSLPVIGEKEVIQADDEPTFSFFSGPYMVMTNLVWNGSRVTVKELNLPTHPHCSRLRLADLLIAEQEHSSKLRHPYLLQLMAVCLSQDLEKTRLVYERITIGTLFSVLHERRSQFPVLHMEVIVHLLLQISDALRYLHFQGFIHRSLSSYAVHIISPGEARLTNLEYMLESEDRGVQRDLTRVPLPTQLYNWAAPEVILQKAATVKSDIYSFSMIMQEILTDDIPWKGLDGSVVKKAVVSGNYLEADVRLPKPYYDIVKSGIHVKQKDRTMNLQDIRYILKNDLKDFTGAQRTQPTESPRVQRYGLHPDVNVYLGLTSEHPRETPDMEIIELKEMGSQPHSPRVHSLFTEGTLDPQAPDPCLMARETQNQDAPCPAPFMAEEASSPSTGQPSLCSFEINEIYSGCLILEDDIEEPPGAASSLEADGPNQVDELKSMEEELDKMEREACCFGSEDESSSKAETEYSFDDWDWQNGSLSSLSLPESTREAKSNLNNMSTTEEYLISKCVLDLKIMQTIMHENDDRLRNIEQILDEVEMKQKEQEERMSLWATSREFTNAYKLPLAVGPPSLNYIPPVLQLSGGQKPDTSGNYPTLPRFPRMLPTLCDPGKQNTDEQFQCTQGAKDSLETSRIQNTSSQGRPRESTAQAKATQFNSALFTLSSHRQGPSASPSCHWDSTRMSVEPVSSEIYNAESRNKDDGKVHLKWKMEVKEMAKKAATGQLTVPPWHPQSSLTLESEAENEPDALLQPPIRSPENTDWQRVIEYHRENDEPRGNGKFDKTGNNDCDSDQHGRQPRLGSFTSIRHPSPRQKEQPEHSEAFQASSDTLVAVEKSYSHQSMQSTCSPESSEDITDEFLTPDGEYFYSSTAQENLALETSSPIEEDFEGIQGAFAQPQVSGEEKFQMRKILGKNAEILPRSQFQPVRSTEDEQEETSKESPKELKEKDISLTDIQDLSSISYEPDSSFKEASCKTPKINHAPTSVSTPLSPGSVSSAASQYKDCLESITFQVKTEFASCWNSQEFIQTLSDDFISVRERAKKLDSLLTSSETPPSRLTGLKRLSSFIGAGSPSLVKACDSSPPHATQRRSLPKVEAFSQHHIDELPPPSQELLDDIELLKQQQGSSTVLHENTASDGGGTANDQRHLEEQETDSKKEDSSMLLSKETEDLGEDTERAHSTLDEDLERWLQPPEESVELQDLPKGSERETNIKDQKVGEEKRKREDSITPERRKSEGVLGTSEEDELKSCFWKRLGWSESSRIIVLDQSDLSD
Consider B4, for which the “Expression Rate (ER) %” value under setting [1] is on record as 5%.

B5: MAGE-A5 (protein, UniProt P43359 1-124, looked up)
Putative melanoma-associated …: MSLEQKSQHCKPEEGLDTQEEALGLVGVQAATTEEQEAVSSSSPLVPGTLGEVPAAGSPGPLKSPQGASAIPTAIDFTLWRQSIKGSSNQEEEGPSTSPDPESVFRAALSKKVADLIHFLLLKY
Take B5: under “BREAST”, the “TSA Expression Rate (ER)” value is reported as 9%. The “Expression Rate (ER) %” value is recorded as 7% (TSA expression rate in CRC) and 25% under setting [2].

B6: BAGE-2 (protein, UniProt Q86Y30 18-109, looked up)
B melanoma antigen 2: RLMKEESPVVSWRLEPEDGTALDVHFVSTLEPLSNAVKRNVPRCIIILVLQEPTAFRISVTSSCFVQNTLTKLLKDRRKMQTVQCATARETS
As to B6, under setting [2], the “Expression Rate (ER) %” value is listed as 23%.

B7: PAGE2 (protein, UniProt Q7Z2X7 1-111, looked up)
P antigen family member 2: MSELLRARSQSSERGNDQESSQPVGSVIVQEPTEEKRQEEEPPTDNQGIAPSGEIENQAVPAFQGPDMEAFQQELALLKIEDEPGDGPDVREGIMPTFDLTKVLEAGDAQP
As to B7, the “Expression Rate (ER) %” value under setting [1] is 4%.

B8: FAM133A (protein, UniProt Q8N9E0 1-248, looked up)
Protein FAM133A: MGKRDNRVAYMNPIAMARWRGPTQSVGPTIQDYLNRPRPTWEEVKKQLENKKTGSKALAEFEEKMNENWKKELEKSREKLLSGNESSSKKRERKKKRKKKSCRSSSSSSSSDSSSSSSDSEDEEKKQGKRRKKKKNRSYKSSQSSTHESESESKESVKKKKKSKDETEKEKDVRSLSKKRKKSYPDDKPLSSESSSESDYEEDVQAKKKRRCEEREQAKEKVKKKKKKQHKKHSKKKKKKSGSSHKSR
Take B8: under setting [1], the “Expression Rate (ER) %” value is on record as 83%.

B9: HORMAD2 (protein, UniProt Q8N7B1 1-307, looked up)
HORMA domain-containing …: MATAQLSHCITIHKASKETVFPSQITNEHESLKMVKKLFATSISCITYLRGLFPESSYGERHLDDLSLKILREDKKCPGSLHIIRWIQGCFDALEKRYLRMAVLTLYTDPMGSEKVTEMYQFKFKYTKEGATMDFDSHSSSTSFESGTNNEDIKKASVLLIRKLYILMQDLEPLPNNVVLTMKLHYYNAVTPHDYQPLGFKEGVNSHFLLFDKEPINVQVGFVSTGFHSMKVKVMTEATKVIDLENNLFRENSTTEIAHQGLDCDEEEECNDHIQRMNFVCSQQSSECSRKKRKVSEPVKVFIPNRK
Regarding B9, the “Expression Rate (ER) %” value under setting [3] is reported as 5%.

B10: MAGE-B3 (protein, UniProt O15480 1-346, looked up)
Melanoma-associated antigen B3: MPRGQKSTLHAREKRQQTRGQTQDHQGAQITATNKKKVSFSSPLILGATIQKKSAGRSRSALKKPQRALSTTTSVDVSYKKSYKGANSKIEKKQSFSQGLSSTVQSRTDPLIMKTNMLVQFLMEMYKMKKPIMKADMLKIVQKSHKNCFPEILKKASFNMEVVFGVDLKKVDSTKDSYVLVSKMDLPNNGTVTRGRGFPKTGLLLNLLGVIFMKGNCATEEKIWEFLNKMRIYDGKKHFIFGEPRKLITQDLVKLKYLEYRQVPNSNPARYEFLWGPRAHAETSKMKVLEFWAKVNKTVPSAFQFWYEEALRDEEERVQAAAMLNDGSSAMGRKCSKAKASSSSHA
With B10, the “Expression Rate (ER) %” value under setting [3] is 0%.

B11: LIPI (protein, UniProt Q6XZB0 16-460, looked up)
Lipase member I: DNKRPCLEFSQLSVKDSFRDLFIPRIETILMMYTRNNLNCAEPLFEQNNSLNVNFNTQKKTVWLIHGYRPVGSIPLWLQNFVRILLNEEDMNVIVVDWSRGATTFIYNRAVKNTRKVAVSLSVHIKNLLKHGASLDNFHFIGVSLGAHISGFVGKIFHGQLGRITGLDPAGPRFSRKPPYSRLDYTDAKFVDVIHSDSNGLGIQEPLGHIDFYPNGGNKQPGCPKSIFSGIQFIKCNHQRAVHLFMASLETNCNFISFPCRSYKDYKTSLCVDCDCFKEKSCPRLGYQAKLFKGVLKERMEGRPLRTTVFLDTSGTYPFCTYYFVLSIIVPDKTMMDGSFSFKLLNQLGMIEEPRLYEKNKPFYKLQEVKILAQFYNDFVNISSIGLTYFQSSNLQCSTCTYKIQSLMLKSLTYPERPPLCRYNIVLKDREEVFLNPNTCTPKNT
On to B11, for which the “Expression Rate (ER) %” value is, setting by setting: (TSA expression rate in CRC) 0%; (TSA expression rate in HEAD and NECK) 0%; (TSA expression rate in Kidney) 25%; under setting [1], 6%; under setting [3], 0%; under setting [2], 0%.

B12: TMEM31 (protein, UniProt Q5JXX7 1-168, looked up)
Transmembrane protein 31: MRLTEKSEGEQQLKPNNSNAPNEDQEEEIQQSEQHTPARQRTQRADTQPSRCRLPSRRTPTTSSDRTINLLEVLPWPTEWIFNPYRLPALFELYPEFLLVFKEAFHDISHCLKAQMEKIGLPIILHLFALSTLYFYKFFLPTILSLSFFILLVLLLLLFIIVFILIFF
As for B12, the “Expression Rate (ER) %” value under setting [2] is 63%.
